Reference: PMC6487263, “Kinetic and structural analysis of human ALDH9A1” (Bioscience Reports, 2019)

Target: the molecule itself
Test: crystal structure; three crystal forms (P2(1)2(1)2, P2(1), C2) at 2.5, 2.9 and 2.3 Å; co-crystallised with 50 mM NAD+ with or without 10 mM TMABA, PEG 4000, 0.1 M sodium citrate pH 5.6; apoform seen; tetramer as dimer-of-dimers

B1: human ALDH9A1 (enzyme, UniProt P49189 1-494, looked up)
chain: MSTGTFVVSQPLNYRGGARVEPADASGTEKAFEPATGRVIATFTCSGEKEVNLAVQNAKAAFKIWSQKSGMERCRILLEAARIIREREDEIATMECINNGKSIFEARLDIDISWQCLEYYAGLAASMAGEHIQLPGGSFGYTRREPLGVCVGIGAWNYPFQIASWKSAPALACGNAMVFKPSPFTPVSALLLAEIYSEAGVPPGLFNVVQGGAATGQFLCQHPDVAKVSFTGSVPTGMKIMEMSAKGIKPVTLELGGKSPLIIFSDCDMNNAVKGALMANFLTQGQVCCNGTRVFVQKEILDKFTEEVVKQTQRIKIGDPLLEDTRMGPLINRPHLERVLGFVKVAKEQGAKVLCGGDIYVPEDPKLKDGYYMRPCVLTNCRDDMTCVKEEIFGPVMSILSFDTEAEVLERANDTTFGLAAGVFTRDIQRAHRVVAELQAGTCFINNYNVSPVELPFGGYKKSGFGRENGRVTIEYYSQLKTVCVEMGDVESAF
notes: Human ALDH9A1, a protein of 494 amino acids; the ORF was amplified with gene-specific primers and ligated into pCDFDuet (BamHI, XhoI); Monomer of 55.4 kDa including the His-tag; cloning into the BamHI site of pCDFDuet would place a His6 tag at the N-terminus (surmised); Residues 232-256 are disordered in the crystal structures; also called HsALDH9A1; TMABALDH; source: E. coli (T7 express; …)
stoichiometry N: 4
